Test results reported in doi:10.1101/2020.08.05.237438 (bioRxiv, 2020).

Assays:
[1] = biological target: recombinant caseinolytic protease ClpP1 of Leptospira interrogans (L. interrogans serovar Copenhageni, UniProt Q72SG6 1-198); assay: dynamic light scattering
[2] = biological target: recombinant ClpP1 S98A active-site mutant of Leptospira interrogans (L. interrogans serovar Copenhageni, UniProt Q72SG6 1-198, S98A); assay: dynamic light scattering

| binding result [1] | binding result [2] | Binder |
| --- | --- | --- |
| binds |  | recombinant ClpP2 S97A active-site mutant of Leptospira interrogans (enzyme, L. interrogans serovar Copenhageni, UniProt Q72R01 1-197, looked up) MPETEKIAEVFEELTGSKISKNFLDHRKIFLWGPVTDESSKDLVGKLLYLEMKDPGKKITFYINSPGGVVTSGMTVFDTIKMISSPVHTVCMGMAAAMGSVLLAAGTKGERSIWPNGKVMIHQPSIGGQIVAPATDLKIHAEEILKTKTKLNQILADACGHPISKLEEDTDRDYYMDAEEAIKYGIVDKLATKIDFN |
| binds | binds | recombinant caseinolytic protease ClpP2 of Leptospira interrogans (enzyme, L. interrogans serovar Copenhageni, UniProt Q72R01 1-197, looked up) MPETEKIAEVFEELTGSKISKNFLDHRKIFLWGPVTDESSKDLVGKLLYLEMKDPGKKITFYINSPGGVVTSGMTVFDTIKMISSPVHTVCMGMAASMGSVLLAAGTKGERSIWPNGKVMIHQPSIGGQIVAPATDLKIHAEEILKTKTKLNQILADACGHPISKLEEDTDRDYYMDAEEAIKYGIVDKLATKIDFN |
